This note sets out measurements from patent publication US12097241B2, “Methods of treating kidney failure, and/or improving or stablizing renal function using modified relaxin polypeptides” (BRISTOL-MYERS SQUIBB COMPANY, priority 2017, dated 2024).

SMILES strings stand for the structures. Where two headings read alike, the source gives them in different places.

The target in one series is T1, human RXFP1 receptor (Homo sapiens, UniProt Q9HBX9).
T1 construct: expressed in transfected cells
T1 sequence (Q9HBX9 1-757): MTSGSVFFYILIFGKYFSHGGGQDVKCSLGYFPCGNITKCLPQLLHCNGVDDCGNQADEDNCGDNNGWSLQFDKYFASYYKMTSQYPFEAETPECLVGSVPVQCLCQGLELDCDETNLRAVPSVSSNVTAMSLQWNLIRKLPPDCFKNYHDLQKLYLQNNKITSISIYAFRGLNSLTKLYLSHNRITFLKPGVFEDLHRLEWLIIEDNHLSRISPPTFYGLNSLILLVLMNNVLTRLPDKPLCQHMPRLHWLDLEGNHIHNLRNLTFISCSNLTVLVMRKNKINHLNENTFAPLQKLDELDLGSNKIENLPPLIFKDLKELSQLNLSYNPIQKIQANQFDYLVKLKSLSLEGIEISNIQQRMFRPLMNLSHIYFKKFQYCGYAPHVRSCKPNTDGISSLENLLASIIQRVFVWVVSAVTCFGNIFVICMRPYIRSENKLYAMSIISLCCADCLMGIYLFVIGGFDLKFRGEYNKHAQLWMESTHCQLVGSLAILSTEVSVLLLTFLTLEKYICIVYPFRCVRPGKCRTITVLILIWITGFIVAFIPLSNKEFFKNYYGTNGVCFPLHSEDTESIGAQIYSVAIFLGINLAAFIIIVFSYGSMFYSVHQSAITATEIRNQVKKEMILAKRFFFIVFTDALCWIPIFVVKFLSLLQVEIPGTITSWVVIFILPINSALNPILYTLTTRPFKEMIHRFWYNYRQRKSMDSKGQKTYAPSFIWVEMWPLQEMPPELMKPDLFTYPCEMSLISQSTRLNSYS
Put plainly: Intracellular cAMP accumulation assay. It counts as cell-based. A general note: cAMP levels reflect the balance of adenylyl cyclase and phosphodiesterase activity.

Series [1] is described as follows: In vivo pharmacokinetic (PK) studies in rats. The arrangement: species or system Sprague-Dawley rats. As to conditions: rat, male Sprague-Dawley rats, single SC dose 1.0 mg/kg, serum ELISA; for AUC(0-inf): read-out: Rat PK AUC Total; for level at time molar at 24 h: read-out: Rat PK C24. The procedure, abridged: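 Male Sprague-Dawley rats (n=3) given a single 1 mg/kg IV or SC dose of relaxin constructs in 20 mM histidine, 750 mM NaCl, pH 6.0; jugular serum sampled to 72 h. Serum relaxin by ELISA; Cmax, AUCinf, C24 and half-life from non-compartmental analysis of individual profiles.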
On the technique in general: An ELISA detects its analyte on a solid surface through an enzyme-linked reagent.

In the case of `CC[C@H](C)[C@@H]1NC(=O)[C@H](C)NC(=O)[C@H]([C@@H](C)CC)NC(=O)[C@H](CCC(N)=O)NC(=O)[C@H](C)NC(=O)[C@H](CCCNC(=N)N)NC(=O)[C@H](C(C)C)NC(=O)[C@H](CC(C)C)NC(=O)[C@H](CCC(=O)O)NC(=O)[C@H](CCCNC(=N)N)NC(=O)CNC(=O)[C@@H](NC(=O)[C@H](CC(C)C)NC(=O)[C@H](CCCCN)NC(=O)[C@@H](NC(=O)[C@@H](NC(=O)[C@H](CCC(=O)O)NC(=O)[C@H](CCC(=O)O)NC(=O)[C@H](CCSC)NC(=O)[C@H](Cc2c[nH]c3ccccc23)NC(=O)[C@H](CO)NC(=O)[C@H](C)N)C(C)C)[C@@H](C)CC)CSSC[C@@H]2NC(=O)[C@@H](NC(=O)[C@H](CCCCN)NC(=O)[C@H](CC(N)=O)NC(=O)[C@H](C)NC(=O)[C@H](CC(C)C)NC(=O)[C@H](C)NC(=O)[C@H](CO)NC(=O)[C@H](Cc3ccc(O)cc3)NC(=O)[C@H](CC(C)C)NC(=O)[C@@H](N)Cc3ccc(C(C)=NOCCNC(=O)CNC(=O)CNC(=O)CNC(=O)CNC(=O)[C@@H]4CCCN4C(=O)CC[C@H](NC(=O)CCCCCCCCCCCCCC(=O)O)C(=O)O)cc3)CSSC[C@H](NC(=O)CNC(=O)[C@H](C(C)C)NC(=O)[C@H](Cc3c[nH]cn3)NC2=O)C(=O)N[C@@H]([C@@H](C)O)C(=O)N[C@@H](CCCCN)C(=O)N[C@@H](CCCNC(=N)N)C(=O)N[C@@H](CO)C(=O)N[C@@H](CC(C)C)C(=O)N[C@@H](C)C(=O)N[C@@H](CCCNC(=N)N)C(=O)N[C@@H](Cc2ccccc2)C(=O)N[C@H](C(=O)O)CSSC[C@@H](C(=O)NCC(=O)N[C@@H](CCSC)C(=O)N[C@@H](CO)C(=O)N[C@H](C(=O)N[C@@H](Cc2c[nH]c3ccccc23)C(=O)N[C@@H](CO)C(=O)O)[C@@H](C)O)NC1=O` [AQ1-GGGGP-Glu^γ-C14-COOH], the EC50 at human RXFP1 receptor stood at 0.39 nM. Besides, in series [1], the AUC(0-inf) stood at 2.18 µM·h and the level at time molar at 24 h turned out to be 3.9 nM.
Regarding `CC[C@H](C)[C@@H]1NC(=O)[C@H](C)NC(=O)[C@H]([C@@H](C)CC)NC(=O)[C@H](CCC(N)=O)NC(=O)[C@H](C)NC(=O)[C@H](CCCNC(=N)N)NC(=O)[C@H](C(C)C)NC(=O)[C@H](CC(C)C)NC(=O)[C@H](CCC(=O)O)NC(=O)[C@H](CCCNC(=N)N)NC(=O)CNC(=O)[C@@H](NC(=O)[C@H](CC(C)C)NC(=O)[C@H](CCCCN)NC(=O)[C@@H](NC(=O)[C@@H](NC(=O)[C@H](CCC(=O)O)NC(=O)[C@H](CCC(=O)O)NC(=O)[C@H](CCSC)NC(=O)[C@H](Cc2c[nH]c3ccccc23)NC(=O)[C@H](CO)NC(=O)[C@H](C)N)C(C)C)[C@@H](C)CC)CSSC[C@@H]2NC(=O)[C@@H](NC(=O)[C@H](CCCCN)NC(=O)[C@H](CC(N)=O)NC(=O)[C@H](C)NC(=O)[C@H](CC(C)C)NC(=O)[C@H](C)NC(=O)[C@H](CO)NC(=O)[C@H](Cc3ccc(O)cc3)NC(=O)[C@H](CC(C)C)NC(=O)[C@@H](N)Cc3ccc(C(C)=NOCCNC(=O)[C@H](CCCCN)NC(=O)[C@H](CCCCN)NC(=O)[C@H](CCCCN)NC(=O)CNC(=O)CNC(=O)CNC(=O)CC[C@H](NC(=O)CCCCCCCCCCCCC(=O)O)C(=O)O)cc3)CSSC[C@H](NC(=O)CNC(=O)[C@H](C(C)C)NC(=O)[C@H](Cc3c[nH]cn3)NC2=O)C(=O)N[C@@H]([C@@H](C)O)C(=O)N[C@@H](CCCCN)C(=O)N[C@@H](CCCNC(=N)N)C(=O)N[C@@H](CO)C(=O)N[C@@H](CC(C)C)C(=O)N[C@@H](C)C(=O)N[C@@H](CCCNC(=N)N)C(=O)N[C@@H](Cc2ccccc2)C(=O)N[C@H](C(=O)O)CSSC[C@@H](C(=O)NCC(=O)N[C@@H](CCSC)C(=O)N[C@@H](CO)C(=O)N[C@H](C(=O)N[C@@H](Cc2c[nH]c3ccccc23)C(=O)N[C@@H](CO)C(=O)O)[C@@H](C)O)NC1=O` [AQ1-KKKGGG-Glu^γ-C13-COOH], at human RXFP1 receptor (CHO-K1 cells stably expressing human RXFP1, 10 min at 37° C., HTRF cAMP, average, read-out: hRXFP1/CHO-K1 cAMP EC50 (nM, avg)), the EC50 came to 0.09 nM. Further, in series [1], the AUC(0-inf) was 0.258 µM·h and the level at time molar at 24 h stood at 0.24 nM.
